Patent publication US20190330320A1
Blank lines part the entries; values can stand above or below the substance they belong to.

Columns and labels:
[1] = target: pathological hyperphosphorylated tau from human Alzheimer's disease brain (AD-P3 antigens) (human) (UniProt P10636); test: fluid phase inhibition of AD-P3 tau capture on MSD plates coated with mouse C10-2; two-site fit, high affinity part
[2] = target: pathological hyperphosphorylated tau from human Alzheimer's disease brain (AD-P3 antigens) (human) (UniProt P10636); test: fluid phase inhibition of AD-P3 tau capture on MSD plates coated with mouse C10-2; two-site fit, low affinity part
[3] = target: pathological hyperphosphorylated tau from human Alzheimer's disease brain (AD-P3 antigens) (human) (UniProt P10636); test: fluid phase inhibition of AD-P3 tau capture on MSD plates coated with mouse C10-2; two-site fit
[4] = target: hyperphosphorylated human tau P301L (4R0N) from rTg4510 mouse brain (64 and 70 kDa species) (human) (UniProt P10636); test: binding to P301L human mutant tau isolated from 10 month old Tg4510 mice
Chain of hyperphosphorylated human tau P301L (4R0N) from rTg4510 mouse brain (64 and 70 kDa species) (human) (P10636 other isoform, or with tags, fused parts or gaps P301L P301L): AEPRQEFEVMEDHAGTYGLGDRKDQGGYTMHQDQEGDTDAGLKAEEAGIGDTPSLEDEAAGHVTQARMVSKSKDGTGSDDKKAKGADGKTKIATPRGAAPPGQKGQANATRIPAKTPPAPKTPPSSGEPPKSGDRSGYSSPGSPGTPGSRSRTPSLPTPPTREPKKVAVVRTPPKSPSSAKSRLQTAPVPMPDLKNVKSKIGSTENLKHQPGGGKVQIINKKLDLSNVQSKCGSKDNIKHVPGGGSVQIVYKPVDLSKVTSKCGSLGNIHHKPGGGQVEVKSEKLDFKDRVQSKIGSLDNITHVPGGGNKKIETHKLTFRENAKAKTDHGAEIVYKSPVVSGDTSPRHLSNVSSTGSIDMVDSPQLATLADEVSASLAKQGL

[5] = target: pathological hyperphosphorylated tau from human Alzheimer's disease brain (AD-P3 antigens) (human) (UniProt P10636); test: fluid phase inhibition of Ptau antigen capture in C10-2 coated plate

Chain of pathological hyperphosphorylated tau from human Alzheimer's disease brain (AD-P3 antigens) (human) (P10636 other isoform, or with tags, fused parts or gaps limits assumed): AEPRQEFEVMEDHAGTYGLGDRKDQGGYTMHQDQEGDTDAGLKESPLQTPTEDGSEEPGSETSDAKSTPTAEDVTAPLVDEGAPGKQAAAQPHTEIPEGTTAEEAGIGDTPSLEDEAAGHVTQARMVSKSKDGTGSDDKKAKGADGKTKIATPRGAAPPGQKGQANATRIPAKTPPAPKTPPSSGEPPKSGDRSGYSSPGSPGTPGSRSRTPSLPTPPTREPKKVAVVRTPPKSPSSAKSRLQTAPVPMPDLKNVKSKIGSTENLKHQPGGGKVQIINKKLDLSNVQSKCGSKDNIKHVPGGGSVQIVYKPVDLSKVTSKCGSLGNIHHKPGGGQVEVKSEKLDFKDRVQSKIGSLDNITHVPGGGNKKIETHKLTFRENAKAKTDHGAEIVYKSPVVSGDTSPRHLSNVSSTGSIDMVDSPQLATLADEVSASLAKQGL
Chain of IPN002 (antibody) (VH): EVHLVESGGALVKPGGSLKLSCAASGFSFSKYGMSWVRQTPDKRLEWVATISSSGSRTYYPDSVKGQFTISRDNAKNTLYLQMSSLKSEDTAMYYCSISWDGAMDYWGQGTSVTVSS
Chain of IPN002 (antibody) (VL): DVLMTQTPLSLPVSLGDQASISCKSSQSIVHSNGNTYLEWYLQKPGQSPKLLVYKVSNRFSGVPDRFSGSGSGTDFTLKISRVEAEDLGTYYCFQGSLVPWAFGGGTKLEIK
Chain of HJ8.5 (antibody) (VH): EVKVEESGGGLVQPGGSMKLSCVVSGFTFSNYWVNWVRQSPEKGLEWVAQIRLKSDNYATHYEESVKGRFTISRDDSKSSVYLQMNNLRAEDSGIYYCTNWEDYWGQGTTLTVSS
Chain of HJ8.5 (antibody) (VL): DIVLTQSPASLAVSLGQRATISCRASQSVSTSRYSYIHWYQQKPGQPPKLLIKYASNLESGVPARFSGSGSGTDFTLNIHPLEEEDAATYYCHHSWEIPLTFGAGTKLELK

IC50 [1]: 14 nM
IC50 [2]: 630 nM
share of the high affinity binding in the total binding [3]: < 25%
Substance: Antibody C10-2 (humanized C10-2)

TG/wt (binding to P301L tau from Tg4510 mice over wild type) [4]: 51
Substance: HJ8.5 (antibody)

TG/wt (binding to P301L tau from Tg4510 mice over wild type) [4]: 37
Substance: IPN002 (antibody)

IC50 [5]: 500 to 1000 nM
Substance: PHF-13 (antibody)
